The target of this assay is T1, LEDGF/p75 IBD (Homo sapiens, UniProt O75475).
T1 chain: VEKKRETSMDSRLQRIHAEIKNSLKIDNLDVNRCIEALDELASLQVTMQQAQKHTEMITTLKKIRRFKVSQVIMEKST
Briefly: NMR.

By Kd is commonly meant the equilibrium constant for the complex coming apart. A high value points to weaker binding.

Turning to GTNLRRFRAVFGESGGGGGSGEDEQFLGFGSDEEVRVR [MLL 123-160], binding was put at a Kd of 64 µM.

(Values after paper PMC7835958 (2021).)
